Experimental data as given in paper PMC3838848 (BioMed Research International, 2013).

Target: the molecule itself
Test: SEC-MALS; 500 uL sample at 1 mg/mL on Superdex 75 10/30 in 50 mM Tris-HCl, 0.15 M NaCl, pH 8.0, online triple-angle static light scattering (MiniDAWN Treos)

B1: POZ/BTB domain of KCTD6 (domain or fragment, human, UniProt Q8NC69 10-110, looked up)
chain: MTDPVTLNVGGHLYTTSLTTLTRYPDSMLGAMFGGDFPTARDPQGNYFIDRDGPLFRYVLNFLRTSELTLPLDFKEFDLLRKEADFYQIEPLIQCLNDPKP
notes: KCTD6, human, POZ/BTB domain, residues 10-110 of the protein of 237 residues (UniProt Q8NC69); cDNA NM_153331; also called KCTD6BTB; source: E. coli BL21(DE3) Star, purified
  stoichiometry N: 4
